Source: the Immune Epitope Database (IEDB)

How the values were obtained:
[1] = target: HLA-B*15:03; test: IEDB peptide-MHC binding, purified MHC/competitive/radioactivity; filed as Kd, often an IC50 or EC50 that approximates it; ≥ and ≤ were set here for values at or beyond the usual limits of such assays; settings: source organism: Vaccinia virus WR
[2] = target: HLA-B*46:01; test: IEDB peptide-MHC binding, purified MHC/direct/fluorescence; filed as Kd, often an IC50 or EC50 that approximates it; ≥ and ≤ were set here for values at or beyond the usual limits of such assays; settings: source organism: Mammarenavirus lassaense
[3] = target: HLA-B*27:05; test: as above; settings: source organism: Mammarenavirus lassaense
[4] = target: HLA-B*39:01; test: as above
[5] = target: HLA-B*44:02; test: as above; settings: source organism: Mammarenavirus lassaense
[6] = target: HLA-B*07:02; test: as above; settings: source organism: Mammarenavirus lassaense
[7] = target: HLA-A*03:01; test: as above
[8] = target: HLA-A*01:01; test: as above; settings: source organism: Mycobacterium tuberculosis
[9] = target: HLA-A*29:02; test: as above
[10] = target: HLA-B*40:01; test: as above; settings: source organism: Mycobacterium tuberculosis variant bovis BCG str. Pasteur 1173P2
[11] = target: HLA-A*03:01; test: IEDB peptide-MHC binding, purified MHC/competitive/fluorescence; filed as Kd, often an IC50 or EC50 that approximates it; ≥ and ≤ were set here for values at or beyond the usual limits of such assays
[12] = target: HLA-A*02:12; test: IEDB peptide-MHC binding, purified MHC/direct/fluorescence; filed as Kd, often an IC50 or EC50 that approximates it; ≥ and ≤ were set here for values at or beyond the usual limits of such assays
[13] = target: HLA-A*24:03; test: as above
[14] = target: HLA-A*02:16; test: as above; settings: source organism: Zaire ebolavirus
[15] = target: HLA-A*02:11; test: as above; settings: source organism: Zaire ebolavirus
[16] = target: HLA-A*02:19; test: as above
[17] = target: HLA-A*02:03; test: as above
[18] = target: HLA-A*68:02; test: as above
[19] = target: HLA-B*46:01; test: IEDB peptide-MHC binding, purified MHC/competitive/fluorescence; filed as Kd, often an IC50 or EC50 that approximates it; ≥ and ≤ were set here for values at or beyond the usual limits of such assays
[20] = target: HLA-B*51:01; test: as above
[21] = target: HLA-B*27:03; test: as above
[22] = target: HLA-A*26:01; test: as above
[23] = target: HLA-B*15:17; test: as above
[24] = target: HLA-B*39:01; test: as above; settings: source organism: Zaire ebolavirus
[25] = target: HLA-A*69:01; test: as above
[26] = target: HLA-B*57:01; test: as above
[27] = target: HLA-A*02:01; test: as above; settings: source organism: Zaire ebolavirus
[28] = target: HLA-B*15:01; test: as above; settings: source organism: Hantavirus HPR/02-73
[29] = target: HLA-B*18:01; test: as above; settings: source organism: Hantavirus HPR/02-73
[30] = source organism: Mammarenavirus lassaense
[31] = source organism: Zaire ebolavirus
[32] = source organism: Araucaria virus
[33] = source organism: Hantavirus HPR/02-73

KIVMTPSPF
Kd [1]: 0.211 µM

KREEHYIVL
Kd [2]: ≥ 20 µM
Kd [3]: ≥ 20 µM
Kd [4, 30]: 0.1 µM
Kd [5]: ≥ 20 µM
Kd [6]: ≥ 20 µM
Kd [7, 30]: ≥ 20 µM

LKSPKRCSF
Kd [1]: 0.00274 µM

LMMTLPSIF
Kd [1]: 0.000152 µM

MTSGSSSGF
Kd [8]: ≥ 5 µM
Kd ([9]; source organism: Mycobacterium tuberculosis H37Rv): 0.051 µM

QETWTRLVL
Kd [10]: 0.0389 µM
Kd ([4]; source organism: Mycobacterium tuberculosis variant bovis BCG str. Pasteur 1173P2): 0.108 µM

RLLHRTTRH
Kd ([11]; source organism: Burkholderia vietnamiensis G4): 0.012 µM

SQVRVPTVF
Kd [12, 31]: ≥ 20 µM
Kd ([13]; source organism: Sudan ebolavirus - Uganda (2000)): ≥ 20 µM
Kd [14]: ≥ 20 µM
Kd [15]: ≥ 20 µM
Kd [16, 31]: ≥ 20 µM
Kd [9, 31]: ≥ 20 µM
Kd [17, 31]: ≥ 20 µM
Kd [18, 31]: ≥ 20 µM
Kd [7, 31]: ≥ 20 µM
Kd [19, 31]: ≥ 20 µM
Kd [20, 31]: ≥ 20 µM
Kd [21, 31]: ≥ 20 µM
Kd [22, 31]: ≥ 20 µM
Kd [23, 31]: ≥ 20 µM
Kd [24]: ≥ 20 µM
Kd [25, 31]: ≥ 20 µM
Kd [26, 31]: ≥ 20 µM
Kd [27]: ≥ 20 µM

VIWAASGFY
Kd ([11]; source organism: Yersinia pestis Nepal516): 0.0956 µM

WKAIGAYIL
Kd [12, 32]: ≥ 20 µM
Kd [13, 32]: ≥ 20 µM
Kd [16, 32]: ≥ 20 µM
Kd ([4]; source organism: Juquitiba virus): 0.0269 µM
Kd [9, 32]: ≥ 20 µM
Kd [17, 32]: ≥ 20 µM
Kd [18, 32]: ≥ 20 µM
Kd [7, 32]: ≥ 20 µM
Kd [19, 33]: ≥ 20 µM
Kd [20, 33]: ≥ 20 µM
Kd [21, 33]: ≥ 20 µM
Kd [22, 33]: ≥ 20 µM
Kd [23, 33]: ≥ 20 µM
Kd [28]: ≥ 20 µM
Kd [29]: ≥ 20 µM
Kd [25, 33]: ≥ 20 µM
Kd [26, 33]: ≥ 20 µM
